These results are taken from patent EP4039268A1 (IMBA-Institut für Molekulare Biotechnologie GmbH, dated 2022).

The chains are these.
B1: Lgals2 CRD-mouse IgG2a-Fc fusion protein (Fc fusion)
chain: KFEVKDLNMKPGMSLKIKGKIHNDVDRFLINLGQGKETLNLHFNPRFDESTIVCNTSEGGRWGQEQRENHMCFSPGSEVKITITFQDKDFKVTLPDGHQLTFPNRLGHNQLHYLSMGGLQISSFKLEGGGSGGGSGGGS
B2: Grifin CRD-mouse IgG2a-Fc fusion protein (Fc fusion)
chain: FEAFCAGGLAPGWSLTVQGHADAGEEKFEINFLTDAGDIAFHVKPRFSSATVVGNAFQGGRWGQEEVSSIFPLTLGEPFEMEVSADAEHFHIYAQEQKVLQFPHRHRPLATITRVRVLSEHRLAQVELAGGGSGGGSGGGS
B3: Cd209d CRD-mouse IgG2a-Fc fusion protein (Fc fusion)
chain: FFNGSCYFFSKSQRNWHNSTTACQELGAQLVIIETDEEQTFLQQTSKARGPTWMGLSDMHNEATWHWVDGSPLSPSFTRYWNRGEPNNVGDEDCAEFSGDGWNDLSCDKLLFWICKGGGSGGGSGGGS
B4: Klrb1a CRD-mouse IgG2a-Fc fusion protein (Fc fusion)
chain: ECPQDWLSHRDKCFHVSHVSNTWEEGLVDCDGKGATLMLIQDQEELRFLLDSIKEKYNSFWIGLRYTLPDMNWKWINGSTLNSDVLKITDDTENDSCAAISGDKVTFESCNSDNRWICQKGGGSGGGSGGGS
B5: Lgals8_1 CRD-mouse IgG2a-Fc fusion protein (Fc fusion)
chain: YVGTITEQLKPGSLIVIRGHVPKDSERFQVDFQLGNSLKPRADVAFHFNPRFKRSSCIVCNTLTQEKWGWEEITYDMPFRKEKSFEIVFMVLKNKFQVAVNGRHVLLYAHRISPEQIDTVGIYGKVNIHSIGFRGGGSGGGSGGGS
B6: Klrb1 CRD-mouse IgG2a-Fc fusion protein (Fc fusion)
chain: HCDKCLFTSQTSRPWADGLVDCNLKGATLLLIQDEEELRLLQNFSKGKGQQFYIGLKYEEVDKVWKWMNGSILNTNLLQITGKDEENSCALISQTEVFSDSCSSDNHWICQGGGSGGGSGGGS
B7: Klrd1 CRD-mouse IgG2a-Fc fusion protein (Fc fusion)
chain: HQCNCYFISKEEKSWKRSRDFCASQNSSLLQPQSRNELSFMNFSQTFFWIGMHYSEKRNAWLWEDGTVPSKDLFPEFSVIRPEHCIVYSPSKSVSAESCENKNRYICKGGGSGGGSGGGS
B8: Mbl2 CRD-mouse IgG2a-Fc fusion protein (Fc fusion)
chain: KVGKKYFVSSVKKMSLDRVKALCSEFQGSVATPRNAEENSAIQKVAKDIAYLGITDVRVEGSFEDLTGNRVRYTNWNDGEPNNTGDGEDCVVILGNGKWNDVPCSDSFLAICEGGGSGGGSGGGS
B9: Lgalslb CRD-mouse IgG2a-Fc fusion protein (Fc fusion)
chain: YFRGHIKGGMRPGKKVLVMGIVDHNPKSFAISLTCGDSEDPPADVAIELKVVFTNQQVFRNSCISGESDEENLAFPYFPFVPDQPFRMEIFCQQPCFRVLVDGHHLFDFYHRIQTLSAIDSIKISGDLQIGGGSGGGSGGGS
B10: Cd209a CRD-mouse IgG2a-Fc fusion protein (Fc fusion)
chain: FQGSCYFFSVAQKSWNDSATACHNVGAQLVVIKSDEEQNFLQQTSKKRGYTWMGLIDMSKESTWYWVDGSPLTLSFMKYWSKGEPNNLGEEDCAEFRDDGWNDTKCTNKKFWICKGGGSGGGSGGGS
B11: Lgals12_2 CRD-mouse IgG2a-Fc fusion protein (Fc fusion)
chain: CSRALPRGLWPGQVIVVRGLVLKEPKDFTLSLKDGTTHVPVTLRASFTDRTLAWVSSWGRKKLISAPFLFHPQRFFEVLLLCQEGGLKLALNGQGLGATSLDQKALEQLRELRISGNVHLYCVHCGGGSGGGSGGGS
B12: Mrc1_1 CRD-mouse IgG2a-Fc fusion protein (Fc fusion)
chain: LTGILYQINSKSALTWHQARASCKQQNADLLSVTEIHEQMYLTGLTSSLSSGLWIGLNSLSVRSGWQWAGGSPFRYLNWLPGSPSSEPGKSCVSLNPGKNAKWENLECVQKLGYICKGGGSGGGSGGGS
B13: Cd207 CRD-mouse IgG2a-Fc fusion protein (Fc fusion)
chain: FSGNFYYFSRTPKTWYSAEQFCISRKAHLTSVSSESEQKFLYKAADGIPHWIGLTKAGSEGDWYWVDQTSFNKEQSRRFWIPGEPNNAGNNEHCANIRVSALKCWNDGPCDNTFLFICKGGGSGGGSGGGS
B14: Lgals8_2 CRD-mouse IgG2a-Fc fusion protein (Fc fusion)
chain: FEARLNASMGPGRTVVIKGEVNTNARSFNVDLVAGKTRDIALHLNPRLNVKAFVRNSFLQDAWGEEERNITCFPFSSGMYFEMIIYCDVREFKVAINGVHSLEYKHRFKDLSSIDTLSVDGDIRLLDVRSWGGGSGGGSGGGS
B15: Frem1 CRD-mouse IgG2a-Fc fusion protein (Fc fusion)
chain: HSGYCHILVTRQKGTWTTATRACREQHQGDLVTVLSRRHMQWLWAMSGRKPFWIGLKNQPRTGHWEWIGGEPVAFTNWRRGAPLHPKPGKNCALVQKRGQWQTKNCSKGKAHNFVGGGSGGGSGGGS
B16: Mrc1_2 CRD-mouse IgG2a-Fc fusion protein (Fc fusion)
chain: YAGHCYRIHREEKKIQKYALQACRKEGGDLASIHSIEEFDFIFSQLGYEPNDELWIGLNDIKIQMYFEWSDGTPVTFTKWLPGEPSHENNRQEDCVVMKGKDGYWADRACEQPLGYICKGGGSGGGSGGGS
B17: Ly75_8 CRD-mouse IgG2a-Fc fusion protein (Fc fusion)
chain: FQNSCYNFMITNNRHKTVTPEEVQSTCEKLHSKAHSLSIRNEEENTFVVEQLLYFNYIASWVMLGITYENNSLMWFDKTALSYTHWRTGRPTVKNGKFLAGLSTDGFWDIQSFNVIEETLHFYQGGGSGGGSGGGS
B18: Klri2 CRD-mouse IgG2a-Fc fusion protein (Fc fusion)
chain: FGNNFYCVFRENSKTWVESQSACEELNSHLVIIDSKAEVENLLLFEMDGWILHRMDGTNSSRLWGNDIKIRNTLMNDSEKKNHSCHYLRGNIFMPDECSAKKTYICEGGGSGGGSGGGS
B19: Ly75_6 CRD-mouse IgG2a-Fc fusion protein (Fc fusion)
chain: FQNKCFLKVNSGPVTFSQASGICHSYGGTLPSVLSRGEQDFIISLLPEMEASLWIGLRWTAYERINRWTDNRELTYSNFHPLLVGRRLSIPTNFFDDESHFHCALILNLKKSPLTGTWNFTSCSERHSLSLCQKGGGSGGGSGGGS
B20: Lgals4_2 CRD-mouse IgG2a-Fc fusion protein (Fc fusion)
chain: YVGALQGGLTVRRTIIIKGYVLPTARNFVINFKVGSSGDIALHLNPRIGDSVVRNSFMNGSWGAEERKVAYNPFGPGQFFDLSIRCGMDRFKVFANGQHLFDFSHRFQAFQMVDTLEINGDITLSYVQIGGGSGGGSGGGS

In one test the target is T1, human recombinant soluble ACE2 (human, UniProt Q9BYF1 18-740).
T1 construct: also called hrsACE2
The test is described as follows: ELISA.
Take B1: the binding result is “no binding (tested: 10 µg/ml)”.

B2: the binding result is recorded as “no binding (tested: 10 µg/ml)”.

For the molecule B3, the binding result is “no binding (tested: 10 µg/ml)”.

For B4, the binding result is on record as “no binding (tested: 10 µg/ml)”.

Take B5: the binding result is “no binding (tested: 10 µg/ml)”.

Take B6: the binding result was “no binding (tested: 10 µg/ml)”.

As to B7, the binding result is given as “no binding (tested: 10 µg/ml)”.

B8: the binding result is recorded as “no binding (tested: 10 µg/ml)”.

For B9, the binding result is “no binding (tested: 10 µg/ml)”.

For B10, the binding result is on record as “no binding (tested: 10 µg/ml)”.

Turning to B11, the binding result was “no binding (tested: 10 µg/ml)”.

For the molecule B12, the binding result is recorded as “no binding (tested: 10 µg/ml)”.

B13: the binding result is listed as “no binding (tested: 10 µg/ml)”.

As for B14, the binding result is reported as “no binding (tested: 10 µg/ml)”.

As to B15, the binding result is recorded as “no binding (tested: 10 µg/ml)”.

In the case of B16, the binding result was “no binding (tested: 10 µg/ml)”.

For B17, the binding result was “no binding (tested: 10 µg/ml)”.

Consider B18, for which the binding result is “no binding (tested: 10 µg/ml)”.

With B19, the binding result is “no binding (tested: 10 µg/ml)”.

As to B20, the binding result is reported as “no binding (tested: 10 µg/ml)”.

The target in a further test is T2, full-length trimeric SARS-CoV-2 Spike protein (Spike-H6) (SARS-CoV-2, N-glycosylated (22 N-glycosylation sites)).
T2 construct: also called trimeric Spike; full-length Spike-H6
The test is described as follows: ELISA screen.
B1: the “Mean normalized OD” value stood at 0.035 OD.

With B2, the “Mean normalized OD” value was determined as 0.004 OD.

For B3, the “Mean normalized OD” value is 0.01 OD.

B4: the “Mean normalized OD” value stood at 0 OD.

For B5, the “Mean normalized OD” value turned out to be 0.019 OD.

Regarding B6, the “Mean normalized OD” value turned out to be 0.002 OD.

Take B7: the “Mean normalized OD” value came to 0.003 OD.

As to B8, the “Mean normalized OD” value turned out to be 0.14 OD.

On to B9, for which the “Mean normalized OD” value was 0.026 OD.

Consider B10, for which the “Mean normalized OD” value amounted to 0.014 OD.

As to B11, the “Mean normalized OD” value turned out to be 0.025 OD.

Take B12: the “Mean normalized OD” value was found to be 0.109 OD.

As to B13, the “Mean normalized OD” value came to 0.028 OD.

On to B14, for which the “Mean normalized OD” value worked out at 0.037 OD.

On to B15, for which the “Mean normalized OD” value amounted to 0.03 OD.

In the case of B16, the “Mean normalized OD” value was -0.028 OD.

As to B17, the “Mean normalized OD” value turned out to be 0.011 OD.

For B18, the “Mean normalized OD” value stood at 0.006 OD.

For the molecule B19, the “Mean normalized OD” value was 0.007 OD.

Turning to B20, the “Mean normalized OD” value is 0.034 OD.

The next test deals with T3, monomeric SARS-CoV-2 receptor binding domain (RBD-H6) (SARS-CoV-2, UniProt P0DTC2 319-541).
T3 construct: Made in HEK293-6E cells; also called RBD Spike; monomeric RBD
Briefly: ELISA screen.
For B1, the “Mean normalized OD” value turned out to be 0.018 OD.

On to B2, for which the “Mean normalized OD” value came to 0 OD.

In the case of B3, the “Mean normalized OD” value was 0.019 OD.

For the molecule B4, the “Mean normalized OD” value was found to be 0.002 OD.

Turning to B5, the “Mean normalized OD” value was found to be 0.031 OD.

B6: the “Mean normalized OD” value came to 0.005 OD.

Regarding B7, the “Mean normalized OD” value came out at 0.004 OD.

As for B8, the “Mean normalized OD” value was found to be 0.001 OD.

As to B9, the “Mean normalized OD” value is 0.01 OD.

For B10, the “Mean normalized OD” value was 0.028 OD.

For the molecule B11, the “Mean normalized OD” value was 0.009 OD.

With B12, the “Mean normalized OD” value is 0.076 OD.

Take B13: the “Mean normalized OD” value amounted to 0.118 OD.

Regarding B14, the “Mean normalized OD” value was 0.012 OD.

Turning to B15, the “Mean normalized OD” value was found to be 0.013 OD.

Regarding B16, the “Mean normalized OD” value worked out at 0.106 OD.

As to B17, the “Mean normalized OD” value is 0.007 OD.

Regarding B18, the “Mean normalized OD” value was 0.001 OD.

As for B19, the “Mean normalized OD” value was 0.003 OD.

As to B20, the “Mean normalized OD” value amounted to 0.014 OD.

For a further test, the target named is T1, human recombinant soluble ACE2. Briefly: ELISA screen. (An ELISA detects its analyte on a solid surface through an enzyme-linked reagent.)
As for B1, the “Mean normalized OD” value was determined as 0.031 OD.

On to B2, for which the “Mean normalized OD” value is 0.035 OD.

In the case of B3, the “Mean normalized OD” value was 0.039 OD.

B4: the “Mean normalized OD” value was determined as 0 OD.

Regarding B5, the “Mean normalized OD” value came to 0.062 OD.

With B6, the “Mean normalized OD” value turned out to be 0.012 OD.

With B7, the “Mean normalized OD” value stood at 0.006 OD.

Consider B8, for which the “Mean normalized OD” value came out at 0 OD.

Consider B9, for which the “Mean normalized OD” value is 0.047 OD.

In the case of B10, the “Mean normalized OD” value came out at 0.049 OD.

Consider B11, for which the “Mean normalized OD” value turned out to be 0.031 OD.

Turning to B12, the “Mean normalized OD” value was found to be 0.161 OD.

Turning to B13, the “Mean normalized OD” value came out at 0.123 OD.

Take B14: the “Mean normalized OD” value came out at 0.074 OD.

For the molecule B15, the “Mean normalized OD” value amounted to 0.028 OD.

With B16, the “Mean normalized OD” value was found to be 0 OD.

Turning to B17, the “Mean normalized OD” value worked out at 0.054 OD.

As to B18, the “Mean normalized OD” value came to 0.005 OD.

For the molecule B19, the “Mean normalized OD” value was 0.005 OD.

Consider B20, for which the “Mean normalized OD” value was determined as 0.031 OD.
